Reference: PMC3531475

Columns and labels:
[1] = target: T1, adiponectin receptor type 2 (AdipoR2) (human (endogenous in SH-SY5Y)) (UniProt Q86V24)
T1 sequence: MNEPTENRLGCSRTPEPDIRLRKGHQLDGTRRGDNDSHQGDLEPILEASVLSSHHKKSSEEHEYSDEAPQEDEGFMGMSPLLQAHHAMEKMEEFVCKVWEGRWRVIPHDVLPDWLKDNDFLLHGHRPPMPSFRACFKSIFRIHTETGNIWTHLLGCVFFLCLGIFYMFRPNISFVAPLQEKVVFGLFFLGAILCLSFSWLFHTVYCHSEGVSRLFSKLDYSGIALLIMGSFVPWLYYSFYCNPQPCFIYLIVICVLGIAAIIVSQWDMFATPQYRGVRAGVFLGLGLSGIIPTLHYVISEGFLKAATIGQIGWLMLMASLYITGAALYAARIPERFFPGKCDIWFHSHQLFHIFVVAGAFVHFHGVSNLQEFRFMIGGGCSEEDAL

[2] = target: T2, adiponectin receptor type 1 (AdipoR1) (human (endogenous in SH-SY5Y)) (UniProt Q96A54)
T2 sequence: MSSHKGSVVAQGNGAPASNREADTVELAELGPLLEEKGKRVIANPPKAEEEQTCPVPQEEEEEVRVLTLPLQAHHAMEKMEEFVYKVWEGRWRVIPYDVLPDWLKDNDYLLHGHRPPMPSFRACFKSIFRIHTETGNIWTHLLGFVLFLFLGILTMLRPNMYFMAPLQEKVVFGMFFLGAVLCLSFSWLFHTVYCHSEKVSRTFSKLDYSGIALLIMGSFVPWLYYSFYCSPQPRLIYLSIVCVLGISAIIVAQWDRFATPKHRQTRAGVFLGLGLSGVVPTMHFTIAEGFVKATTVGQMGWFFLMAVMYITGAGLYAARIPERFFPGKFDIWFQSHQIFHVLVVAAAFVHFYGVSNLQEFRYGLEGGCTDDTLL

Substance “Mouse recombinant adiponectin (from UniProt Q60994 18-247) (ligand)” has a cytotoxicity (LDH release, fold of untreated) of Sw-APP transfected SH-SY5Y cells under H2O2 (200-800 µM), with adiponectin 10 µg/ml for 2 hours beforehand; most marked at 400 µM H2O2 (fold cytotoxicity) [1] of 2.7 and a cytotoxicity (LDH release, fold of untreated) of Sw-APP transfected SH-SY5Y cells under H2O2 (200-800 µM), with adiponectin 10 µg/ml for 2 hours beforehand; most marked at 400 µM H2O2 (fold cytotoxicity) [2] of 2.7.
